Target: T1, σ^C4 domain of M. tuberculosis σ^C (M. tuberculosis)
T1 chain: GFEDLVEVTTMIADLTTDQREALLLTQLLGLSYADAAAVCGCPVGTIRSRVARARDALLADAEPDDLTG
Assay: SPR

B1: σ^C2 domain of M. tuberculosis σ^C (domain or fragment)
chain: MTATASDDEAVTALALSAAKGNGRALEAFIKATQQDVWRFVAYLSDVGSADDLTQETFLRAIGAIPRFSARSSARTWLLAIARHVVADHIRHVRSRPRTTRGARPEHLIDGD
  Kd: 1810 ± 30 nM

Source: PMC1890005 (The Journal of biological chemistry, 2006)
